In patent publication US20030207791A1, “Materials and methods relating to the treatment of leukaemias” (priority 2000, published 2003):

Key:
[1] = target: nuclear corepressor (NCoR) (UniProt O75376); assay: cell-based or functional assay
PML-RAR = PML-RAR (UniProt P29590); assay: cell-based or functional assay
Chain of PML-RAR (UniProt P29590) (P29590 other isoform, or with tags, fused parts or gaps limits assumed): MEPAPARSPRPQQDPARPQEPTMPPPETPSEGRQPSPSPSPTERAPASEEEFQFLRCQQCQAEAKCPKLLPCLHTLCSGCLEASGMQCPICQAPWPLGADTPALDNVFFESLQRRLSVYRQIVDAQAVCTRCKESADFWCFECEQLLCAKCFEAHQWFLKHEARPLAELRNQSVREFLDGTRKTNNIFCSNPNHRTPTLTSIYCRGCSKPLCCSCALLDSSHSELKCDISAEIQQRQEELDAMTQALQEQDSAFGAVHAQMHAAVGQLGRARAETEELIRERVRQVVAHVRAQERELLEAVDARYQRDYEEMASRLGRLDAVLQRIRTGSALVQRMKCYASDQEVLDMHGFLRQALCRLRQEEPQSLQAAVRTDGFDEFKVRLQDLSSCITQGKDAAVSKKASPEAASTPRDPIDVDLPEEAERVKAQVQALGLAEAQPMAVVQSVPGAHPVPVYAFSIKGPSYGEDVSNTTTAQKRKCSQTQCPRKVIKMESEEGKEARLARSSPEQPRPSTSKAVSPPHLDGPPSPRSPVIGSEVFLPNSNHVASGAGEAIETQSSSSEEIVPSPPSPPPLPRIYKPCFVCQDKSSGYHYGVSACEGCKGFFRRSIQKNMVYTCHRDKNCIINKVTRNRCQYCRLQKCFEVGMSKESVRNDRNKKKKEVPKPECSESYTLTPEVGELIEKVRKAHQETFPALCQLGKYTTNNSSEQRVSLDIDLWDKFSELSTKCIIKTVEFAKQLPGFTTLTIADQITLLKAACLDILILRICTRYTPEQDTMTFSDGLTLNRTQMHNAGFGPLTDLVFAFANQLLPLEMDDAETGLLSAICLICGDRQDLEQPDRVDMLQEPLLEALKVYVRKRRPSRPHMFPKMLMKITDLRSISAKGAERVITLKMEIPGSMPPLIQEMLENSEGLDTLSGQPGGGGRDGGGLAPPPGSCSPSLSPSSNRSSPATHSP

Chain of nuclear corepressor (NCoR) (O75376 whole entry): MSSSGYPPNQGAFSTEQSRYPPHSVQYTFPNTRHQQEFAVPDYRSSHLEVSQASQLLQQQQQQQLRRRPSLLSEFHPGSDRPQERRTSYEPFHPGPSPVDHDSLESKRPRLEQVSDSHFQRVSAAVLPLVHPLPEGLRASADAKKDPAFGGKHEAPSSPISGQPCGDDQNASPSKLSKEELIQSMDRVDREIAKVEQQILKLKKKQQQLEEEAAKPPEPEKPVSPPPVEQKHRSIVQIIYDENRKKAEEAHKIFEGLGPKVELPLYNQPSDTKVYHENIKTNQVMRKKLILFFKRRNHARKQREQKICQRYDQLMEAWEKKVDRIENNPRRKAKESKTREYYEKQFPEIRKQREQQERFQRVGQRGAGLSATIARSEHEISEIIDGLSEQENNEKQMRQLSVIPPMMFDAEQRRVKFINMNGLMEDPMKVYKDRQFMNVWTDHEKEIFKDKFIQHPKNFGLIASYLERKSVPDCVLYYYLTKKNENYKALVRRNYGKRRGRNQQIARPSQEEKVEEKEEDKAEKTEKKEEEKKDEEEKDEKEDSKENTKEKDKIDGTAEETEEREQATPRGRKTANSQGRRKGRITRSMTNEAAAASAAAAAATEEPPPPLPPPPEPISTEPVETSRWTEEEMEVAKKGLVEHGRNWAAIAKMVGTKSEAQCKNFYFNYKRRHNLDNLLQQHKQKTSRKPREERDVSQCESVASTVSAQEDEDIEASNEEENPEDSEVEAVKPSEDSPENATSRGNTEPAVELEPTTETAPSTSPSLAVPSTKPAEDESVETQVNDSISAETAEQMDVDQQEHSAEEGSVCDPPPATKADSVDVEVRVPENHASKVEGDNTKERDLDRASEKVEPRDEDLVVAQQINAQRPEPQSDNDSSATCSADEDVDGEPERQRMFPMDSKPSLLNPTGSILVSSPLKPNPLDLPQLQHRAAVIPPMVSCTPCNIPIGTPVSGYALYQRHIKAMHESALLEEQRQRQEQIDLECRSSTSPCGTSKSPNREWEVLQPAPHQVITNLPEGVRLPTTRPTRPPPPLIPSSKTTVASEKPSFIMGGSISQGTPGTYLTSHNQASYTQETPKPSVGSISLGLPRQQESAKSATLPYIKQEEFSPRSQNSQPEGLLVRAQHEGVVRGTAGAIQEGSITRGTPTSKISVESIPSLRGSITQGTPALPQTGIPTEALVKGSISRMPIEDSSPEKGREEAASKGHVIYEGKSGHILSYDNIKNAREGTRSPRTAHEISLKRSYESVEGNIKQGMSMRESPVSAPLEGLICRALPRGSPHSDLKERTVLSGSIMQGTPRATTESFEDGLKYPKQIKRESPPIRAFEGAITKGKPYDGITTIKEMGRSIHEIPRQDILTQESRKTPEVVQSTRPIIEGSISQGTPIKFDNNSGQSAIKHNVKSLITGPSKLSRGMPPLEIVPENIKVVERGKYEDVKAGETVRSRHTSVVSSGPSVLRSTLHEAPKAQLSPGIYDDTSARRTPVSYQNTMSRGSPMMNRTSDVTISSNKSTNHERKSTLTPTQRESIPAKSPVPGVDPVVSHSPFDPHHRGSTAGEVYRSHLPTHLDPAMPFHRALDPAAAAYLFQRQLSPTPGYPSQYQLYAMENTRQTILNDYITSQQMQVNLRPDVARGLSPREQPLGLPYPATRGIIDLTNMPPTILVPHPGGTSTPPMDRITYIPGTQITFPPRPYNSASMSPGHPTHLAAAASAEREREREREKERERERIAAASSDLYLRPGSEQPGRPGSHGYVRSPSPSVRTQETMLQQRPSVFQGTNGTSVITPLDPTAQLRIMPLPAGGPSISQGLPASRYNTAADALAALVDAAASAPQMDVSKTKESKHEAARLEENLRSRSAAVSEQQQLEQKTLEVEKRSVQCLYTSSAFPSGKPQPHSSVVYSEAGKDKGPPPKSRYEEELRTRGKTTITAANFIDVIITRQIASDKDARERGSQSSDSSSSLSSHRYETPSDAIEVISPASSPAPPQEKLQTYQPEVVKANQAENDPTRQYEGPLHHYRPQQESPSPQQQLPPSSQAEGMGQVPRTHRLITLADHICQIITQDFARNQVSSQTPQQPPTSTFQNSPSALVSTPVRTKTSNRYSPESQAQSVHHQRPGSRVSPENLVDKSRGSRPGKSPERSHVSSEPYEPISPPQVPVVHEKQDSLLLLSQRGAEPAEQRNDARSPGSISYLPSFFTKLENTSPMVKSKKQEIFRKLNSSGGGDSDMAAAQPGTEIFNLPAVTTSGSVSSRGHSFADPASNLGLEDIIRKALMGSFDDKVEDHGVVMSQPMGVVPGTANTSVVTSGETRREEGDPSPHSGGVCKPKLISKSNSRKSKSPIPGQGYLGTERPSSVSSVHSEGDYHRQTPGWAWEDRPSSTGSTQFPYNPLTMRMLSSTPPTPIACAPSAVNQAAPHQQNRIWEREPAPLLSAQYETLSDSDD
Chain of PML-RAR (from UniProt P29590 1-552; P10276 61-462) (P29590 other isoform, or with tags, fused parts or gaps limits assumed): as the sequence (P29590 other isoform, or with tags, fused parts or gaps limits assumed) above

transcriptional repression of GAL4-VP16 activation of the RARE-G5-TATA reporter in HeLa cells, 50 ng expression vector [1] [%]	percentage of differentiated, CD14+ U937 cells after vitamin D and TGFβ, PML-RAR induced (% CD14+ cells) (PML-RAR)	Substance
30 to 40		PML-RAR (from UniProt P29590 1-552; P10276 61-462)
	70	coiled coil of PML (RBCC) (from UniProt P29590 1-360)
